Assay results from patent US20170322229A1, “HIGH AFFINITY VITAMIN D3 BINDING PROTEINS” (UNIVERSITY OF WASHINGTON, priority 2015, published 2017).

B1: CDL1.1: evolved variant of CDL1 with mutations P46S, R55A, H68P, G136V; truncated as well as mutated from 6234 (protein)
chain: NLYFQGHMNAKEILVHALRLVENGDARGFCDLFHPEGVMEFPYAPSGYKTRFEGAETIWAHMRLFPEPLTIRFTDVQFYETADPDLAIGEFHGDGVATVSGGKLAQDFISVLRTRDGQILLSRIFWNPLRHLEALV
B2: CDL1: designed 25-D3 binder based on scaffold PDB ID 1Z1S, a putative isomerase; 8 mutations from 1Z1S (protein)
chain: SGREQGHMNAKEILVHALRLVENGDARGFCDLFHPEGVMEFPYAPPGYKTRFEGRETIWAHMRLFPEHLTIRFTDVQFYETADPDLAIGEFHGDGVATVSGGKLAQDFISVLRTRDGQILLSRIFWNPLRHLEALGGVEAAAKIVQGA
B3: CDL2.1: evolved variant of CDL2 incorporating 10 mutations scattered around the protein (protein)
chain: DQSAKEAIEAALADFVKVYNSKDAAGVASKYMDDAAIFPLDMAPVDGRQNIQKLWQGLMDMGVSEPKFTTLNVQKSGDFAFESGSFSLKGPGKDSKLVDIAGIYVEVWRKGQDGGWKLYRTIANLDPAK
B4: CDL2.2: slightly truncated from HH35.v1/CDL2.1; most advanced variant from the directed evolution efforts (protein)
chain: QSAKEAIEAALADFVKVYNSKDAAGVASKYMDDAAIFPLDMAPVDGRQNIQKLWQGLMDMGVSEPKFTTLNVQKSGDFAFESGSFSLKGPGKDSKLVGIAGIYVEVWRKGQDGGWKLYRTIANLGP
B5: CDL2: designed 25-D3 binding protein based on scaffold PDB ID 3HX8, a putative ketosteroid isomerase (protein)
chain: GQSAKEAIEAALADFVKAYNSKDAAGVASKYMDDAAIFPLDMARVDGRQNIQKLWQGLMDMGVSELKLTTLDVQESGDFAFESGSFSLKGPGKDSKLVDVAGKYVVVWRKGQDGGWKLYRTISNLDPAK

Assays:
[1] = Yeast surface display and flow cytometry titration against vitamin D3; type: binding; details: for specificity for 25-D3 over vitamin D3: preference for 25-D3 over non-hydroxylated vitamin D3
Description: (§1) Binding activity yeast surface display and flow cytometry, according to methods previously described by Wittrup et al.

[2] = Approximate Kd summary (Table 4) / measured binder ranking, method not stated; type: binding; details: Ligand Target 25-hydroxycholecalciferol
[3] = Yeast surface display and flow cytometry binding/titration against 25-D3; details: for Kd: yeast surface display, 25-D3
Description: We discovered another binder for 25-D3, referred to here as CDL2. […] It was further evolved to investigate and improve its specificity and affinity. To test a broader number of mutants, CDL2 was optimized using ep-PCR as well as small computationally guided library. The computationally guided library was constructed by docking the ligand into the binding site and optimizing the interactions between 25-D3 and the protein using ROSETTA®. To increase the sampling of the ligand, short MD simulations were performed to make small perturbations of the backbone. These computational variants, as well as variants generated via error prone mutagenesis, were expressed on yeast and sorted via fluorescence activated cell sorting. Individual designs sequenced from various rounds of mutagenesis and sorting were sequenced during the evolution to inform further design and mutagenesis strategies. One evolved variant, CDL2.1, incorporated 10 mutations scattered around the protein. Another evolved variant CDL2.2 is the most advanced variant from the directed evolution efforts.
as §1

[4] = Fluorescence polarization binding of 25-D3; details: read-out: Approximate Kd

Molecule	specificity for 25-D3 over vitamin D3 [1]	Kd [2] [nM]	Kd ([3]; read-out: Approximate Kd) [nM]	Kd ([3]; read-out: Kd) [nM]	Kd ([1]; yeast surface display, vitamin D3, read-out: Approximate Kd) [nM]	Kd [4] [nM]	binding signal for 25-D3 on yeast ([3]; yeast display and flow cytometry, biotinylated 25-D3)
B1	about two fold over CDL1	229	~229				
B2	did not show a significant preference	1300		~2000			
B3		319	~319		~1900		
B4						~188	
B5		2100				~2100	exceptionally strong signal
